Experimental data taken from publication PMC5379953 (The Journal of Cell Biology, 2017).

B1: human Spindly^2–359::Strep-tag II (N-terminal coiled-coil region) (domain or fragment, UniProt Q96EA4 2-359, looked up)
chain: EADIITNLRCRLKEAEEERLKAAQYGLQLVESQNELQNQLDKCRNEMMTMTESYEQEKYTLQREVELKSRMLESLSCECEAIKQQQKMHLEKLEEQLSRSHGQEVNELKTKIEKLKVELDEARLSEKQLKHQVDHQKELLSCKSEELRVMSERVQESMSSEMLALQIELTEMESMKTTLKEEVNELQYRQEQLELLITNLMRQVDRLKEEKEEREKEAVSYYNALEKARVANQDLQVQLDQALQQALDPNSKGNSLFAEVEDRRAAMERQLISMKVKYQSLKKQNVFNREQMQRMKLQIATLLQMKGSQTEFEQQERLLAMLEQKNGEIKHLLGEIRNLEKFKNLYDSMESKPSVDSG

Key:
[1] = molecular target: GST::LIC1::6×His, full-length dynein light intermediate chain 1 (residues 1–523) (human, UniProt Q9Y6G9 1-523); experiment: pull-down
[2] = molecular target: B1; experiment: pull-down

B1: binds [1].

B2: GST::LIC1::6×His C-terminal region (residues 388–523) (domain or fragment, human, UniProt Q9Y6G9 388-523, looked up)
chain: PTAAGRPVDASPRVPGGSPRTPNRSVSSNVASVSPIPAGSKKIDPNMKAGATSEGVLANFFNSLLSKKTGSPGGPGVSGGSPAGGAGGGSSGLPPSTKKSGQKPVLDVHAELDRITRKPVTVSPTTPTSPTEGEAS
B2: binds [2].

B3: human Spindly^2–359 F258A::Strep-tag II (domain or fragment, UniProt Q96EA4 2-359, looked up)
chain: EADIITNLRCRLKEAEEERLKAAQYGLQLVESQNELQNQLDKCRNEMMTMTESYEQEKYTLQREVELKSRMLESLSCECEAIKQQQKMHLEKLEEQLSRSHGQEVNELKTKIEKLKVELDEARLSEKQLKHQVDHQKELLSCKSEELRVMSERVQESMSSEMLALQIELTEMESMKTTLKEEVNELQYRQEQLELLITNLMRQVDRLKEEKEEREKEAVSYYNALEKARVANQDLQVQLDQALQQALDPNSKGNSLAAEVEDRRAAMERQLISMKVKYQSLKKQNVFNREQMQRMKLQIATLLQMKGSQTEFEQQERLLAMLEQKNGEIKHLLGEIRNLEKFKNLYDSMESKPSVDSG
B3: binds [1].

B4: human BICD2^2–422::Strep-tag II (domain or fragment, UniProt Q8TD16 2-422, looked up)
chain: SAPSEEEEYARLVMEAQPEWLRAEVKRLSHELAETTREKIQAAEYGLAVLEEKHQLKLQFEELEVDYEAIRSEMEQLKEAFGQAHTNHKKVAADGESREESLIQESASKEQYYVRKVLELQTELKQLRNVLTNTQSENERLASVAQELKEINQNVEIQRGRLRDDIKEYKFREARLLQDYSELEEENISLQKQVSVLRQNQVEFEGLKHEIKRLEEETEYLNSQLEDAIRLKEISERQLEEALETLKTEREQKNSLRKELSHYMSINDSFYTSHLHVSLDGLKFSDDAAEPNNDAEALVNGFEHGGLAKLPLDNKTSTPKKEGLAPPSPSLVSDLLSELNISEIQKLKQQLMQMEREKAGLLATLQDTQKQLEHTRGSLSEQQEKVTRLTENLSALRRLQASKERQTALDNEKDRDSHEDG
B4: binds [1].
